Test results: the DeepSol protein solubility set

Experiment: soluble on expression in E. coli; label from the status in PepcDB or PDB records

| Sequence | soluble on expression in E. coli |
| --- | --- |
| VKVSKECEKIDIILTDGVIILGKIKGQIDSKSLHEHEKKPFSQSGTMNPETSRLLVNLSRPKKEVLDPFVGTGSILIEARWLNYECIGSDLDKAMLQKTKINLNYFNYYCSLLFSSATNLPFRQITSIATDPPYGRSTKNKGAELTQLYEEFFSSASETLTKGGFLVFATDSRFNFIDKLKENSFIIKGLHYLYSHKSLTRAIYVVQKK | not soluble |
| MGPVPEFSVIIPARNEAAYLPGTLRALERQTLAPAEVIVVDNASRDQTAQIARSWGAQVLSCPEGGVARARQLGLDTARSSWVATTDADSLPAPGWLAAYAQAALLAGGYPEVEAYEDVILGQNLARLGEIGYVPRALVETSARRLDRGVGPFLIQHLRNLTGHTRGLEHHHHHH | not soluble |
| MSLNRKHETVSEFVRHLPCENCGSSDANSIYTDNHQYCFACEHYVHGDGETPTTGGRTKRMEGLISGEFKPLMKRKLTLETCRKFGYFVSEVRGRLVQVAPYFDNSGVMVAQKLRDQDKGFAILGDGAKLTLFGQNLWASGGKKIVVTEGELDAMSVSQVQNNKWPVVSLPNGAPAARKAIQRNIEYLESFEEVILMFDMDEPGREAAQECAELFSPGKCKIATLSMKDANELLVAGREQEIVTAIWNAKLYRPDGVVNVRDLLEEIRKALVMGLPWFLDPLTQLTYGRRYGEVYGLGAGTGVGKTDFLTQQIAYDIQVLGERVGTIFLEQKPTETAKRVAGKIAGKRFHVPKDTAGWTDEELDAAVDALGENLVMYDAFGETEWDIVKRKVRYMAVSEGIKLIYIDHLTAMADTADEKGSLEQIMKEMAGLANELGIIITFISHLTTPEGKPHEEGGRVTIRHFKGSRAIGFWSYFMFGLERDQQAEDPVVRQTTTFRILKDRCTGQATGEVLYLAYDRDTGLLSLTEAPEPSSPFKDESEGHHHHHH | soluble |
| MNKPVSSIPQSKEELELAINSIFDKLMADYRTIPVELTRERNVEGNIKGTQVSVCDTVAYLIGWGKLVLKWHRLKAQGLPVEFPESGFKWNQLGLLAEHFHEQYADWKYEALLKELESTVNELLSLISSLSNYDLYETTWYDKWTLGRMIQFNTSSPMKNMRSKVRRFKKNKGLLLEHHHHHH | soluble |
| MSLTELEFVTEHRRYLHKHPELSLHEYETTKYIAHFLDDLGVPYERPLDTGVIAYLSGNSTHTIAYRADIDALPIYEENNVSYRSEVDHVMHACGHDGHTTALMLFVKRCKNLADKGELPQNIVFIFQPAEETGGGANRLIRAGAFEKYPIEAVFGIHVMPFENEGRVVIRDEEITASATEYRFYLHGLSSHVADKEQGHSCGEALQHVLTQVGQIQQYHLNGLKRNIVHMGHFEAGEAINTVPSNGYLEGTIRTYDVKDLEIVKQQMTKISESVKLLFNVECEVKFEEGYPPTFNDPQLRKHVENGLVNAEFEVIDKPTPYLFGEDFSFYSQIAPSYFVFVGVRDEAKGYVTGLHTSHLNFNESILIRIADYYEQILKSYSEVQSEGHHHHHH | soluble |
| MGSDKIHHHHHHMDQSLFQNGNFQPLASRMRPQTLDEFVGQTHLLGKDKVLSNLIEHDEISSMIFWGPPGVGKTTLARIIARRTKAQFVTFSAVTSGIKEIKQVMKEAEQNRELGQKTIVFVDEIHRFNKAQQDAFLPYVERGSIILIGATTENPSFEVNAALLSRTRVFVLHGLTSAELVDLLQRALKDPRGYGLQKVKIGKKLLAQIADFANGDARIALNTLEMAVTNAETKGGVITVTQADVAQLLTKKALLYDKNGEEHYNLISALHKSMRNSDVDAAIYWLARMLEAGEDPLYVARRLVRFASEDIGMADSRALEITIAVYQACQFIGMPECTVHLTHAVTYLALAPKSNALYTAYEGAKKDATETLAEPVPLQIRNGVTDLMQDLGYGKDYQYAHNTKDKLTTMQTMPDNLIGKTYYHPTTQGSEAKVKERLEQIKAWHAQHPDPDSPKTKKKS | not soluble |
| MSLASSLHVLLEKIIKIGDLTVNSPGGSRTFGDGTGKKVVLNFTDEAAMQEIAADPALKLAEMYMEGRAKVAKGDIYDFLALVKGNTLSEALSFGMIWRGMARIIAARIKMRLPVNHNKSNVAHHYDLSAKLFDLFLDEDWQYSCAYFNPPDIGLYEAQVAKKRHIAAKLMTEPGQSVLEIGSGWGGMAMYIAESAGADVTGITLSEEQLRVSRDRAAKRGLAGNVRFELQDYRYLPASKKYDRIVSVGMFEHVGPTHYRDYFDKVAEVLDDKGVMVLHSIGQPYPALATNPFIEKYIFPGGYIPSLAEVLPAIQKSGLLVKDIEILPMHYAHTLRHWRERFVARKAEAVALYDERFFRMWEFYLAGSEMAFTHENFHIFQIQLAKDRDAVPHNRDYIAQNEAKLLEFEKTRPPLEKVSEGHHHHHH | soluble |
| MSLKIERLNIIVTCPGRNFVTVKIVTDEGVHGLGDATLNGRELAVRAYLEDHVFPCLIGRDPRDIEDIWQYLYRGAYWRRGPVTMTAIAAIDMALWDIKSKLAGMPVYQLLGGKSREGLMVYGHANGRDHDEAIDAAHRHIAAGYRAIRVQSGVPGLAKVYGVGKTAGAYEPAEKGLPPEEPWDTALYLRHTPELFRKVRDALGDAPHLLHDAHHRLTPIEAARLGRDLEPYRLFWLEDATPAENQDAFRLIRSHTTTTLAVGEVFNSIWDCKDLIRDQLIDYIRATIVHAGGITHVRRIADYAAMYQVRTGFHGATDLSPVCMAAAVNFGLWAPNFGIQELMPHTALTDEVFPHNYRFDDGYLVMDDVPGLGVDIDETLAANYPYERAYLPVARLRDGSMWNWEGHHHHHH | not soluble |
| MGSDKIHHHHHHMEIKQLKEGLEGKVDFSLEYLREKPRQRAHMVASLLDDFFQPLSQHVLLEERISIMIRRGYVSRNLQDGSLNQHLQNGYERVMSGSLQSYKFRNVLTTATCLSLIGCSGSGKSSTLDRILATYPQVIYHEKHNFFQLSYLKIECPNNGSQQSLCLNFFREVDKRLGTKYESDYGGKRHGVPTLLALMSQVANQRAIGVLVIDEIQRLKIRKAVGREQMLEFFVELVNTVGIPVILVGTPKARPLFEIELQSARRTTGIGSLYWQPMPQYPDNPAERSEWEAFTNKLWRYQWLTRRDEVLTDEIRDCWYELSQGVLDIVVKLFVLAQLRAIASKLERITVKVLRSVYETELKPVHPMLHAIRRGNPNLIAKYSDLRIEDIDKRLLTLHQKIQALPEEPELPFSNNEQAMRLYNLLVQMDCRSDLLIPLVEKIFIERPKLTLRNMMPIVLEWYENGKEQPTNAPKPAKAALVKRTDWNTLESDDLRFIYSQVGKSESIYEALKDNGLVLDLKKVN | not soluble |
| MDFPRIIMARNPIYFESIQIGEKIEGLPRTVTETDIWTFAYLTADFFPLHTDVEFAKKTIFGKPIAQGMLVLSIALGMVDQVILSNYDVSSVIAFFGIKDVRFLRPVFIGDTIAASAEVVEKQDFDEKSGVVTYKLEVKNQRGELVLTALYSALIRKTPSK | soluble |
| MGSDKIHHHHHHMDRIIYTAGSGASQAMQQQSVVNHNLSNVSTPGFRAELDAMRAVPVQGDGRLATRTSVAATTSGTDFSPGYMNATGRRLDVAMQGDAFLAIQDPQGGEAYTRRGDLQVDADGMLTVKGEPVMGEQGPIVVPPDAEFSIGADGSISVLEAGANPDEIAPVGRLKLVTPDLQALTRGDDGWFRLPPGDDAEIAAPQPLDEDARLQSGVLEGSNVSATDAMVAMIDGARRYDMQMKVIESADQNAQRANSLLSVQA | not soluble |
| MGSDKIHHHHHHMSELSQLSPQPLWDIFAKICSIPHPSYHEEALAAHILEWAKEKGIYAERDQVGNILLRKAATAGMENRKPVVLQAHLDMVPQKNNDTVHDFTTDPIQPYVDGEWLKARGTTLGADNGIGMASALAVLADPSVEHGPLEVLLTMTEEAGMDGAFGLQPNWLQGEILINTDSEEEGEIYMGCAGGIDFITRLPLVREVPPAGYQTLKLTIKGLKGGHSGGDIHLGLGNANKLLARFLFEQAEALDIRILDLNGGTLRNAIPREAFATLSLPAANVEQLKTLSQDYLAVLKNELSAVEKNLTVLVEANDSNEHPLTQDSRDRLLGLLNATPNGVIRMSDDVKGVVETSLNLGVVTMEDDHAEIICLIRSLIDSGKDAVVGTLTALGQLAGAKTSPKGGYPGWQPDAHSPVMALVRETYQKQFNKTPNIMVIHAGLECGLFKKPYPDMDMVSIGPTITGPHSPDEQVHIGSVDLYWKLLTELLKAIPPRA | not soluble |
| MSLAYKGYLIDLDGTIYKGKSRIPAGERFIERLQEKGIPYMLVTNNTTRTPESVQEMLRGFNVETPLETIYTATMATVDYMNDMNRGKTAYVIGEEGLKKAIADAGYVEDTKNPAYVVVGLDWNVTYDKLATATLAIQNGALFIGTNPDLNIPTERGLLPGAGSLNALLEAATRIKPVFIGKPNAIIMNKALEILNIPRNQAVMVGDNYLTDIMAGINNDIDTLLVTTGFTTVEEVPDLPIQPSYVLASLDEWTFNEGHHHHHH | soluble |
| MSLRKVVILTLVTLFTCVEYSQAQTTEKEMTRQEKKAAQEALDKMLFQEAKEAIDNQTFVLEADRVYFKYGTSAFVSSNTNFVGLDGDKAVVQVAFNVPFSGPNGLGGITVDGNASNYKVKTDKKGNIHVSMNVMGIGISAQVNIDIPYGSNNATVDILPNFNSSHMTLSGQILPLKKANVFKGRSLEGHHHHHH | soluble |
| MYKGYLIDLDGTMYRGEEQIEEASDFVKALGERGIPYLFVTNNSTRKPEQVAEKLVRFDIPAKAEQVFTTSMATANFIYERKQDATVYMIGEEGLHDALVEKGFELVDENPDFVVVGLDRDITYEKLAKACLAVRNGATFISTNGDIAIPTERGLLPGNGSLTSVVAVSTGVDPIFIGKPESIIMEQALKVLGIEKNEALMVGDNYDTDILAGINAGMHTLLVHTGVTTVEKLTEYEVQPTQVVHNLTEWIEKM | not soluble |
| MKDIIIASFYKFIPLNDFESLREPILTKMHEIGIKGTIILAHEGVNGGFAGNREQMNVFYDYLRSDSRFADLHFKETYDNKNPFDKAKVKLRKEIVTMGVQKVDPSYNAGTYLSPEEWHQFIQDPNVILLDTRNDYEYELGTFKNAINPDIENFREFPDYVQRNLIDKKDKKIAMFCTGGIRCEKTTAYMKELGFEHVYQLHDGILNYLESIPESESLWEGKCFVFDDRVAVDQKLDRVYPQLPQDYKYEREQK | not soluble |
| EILAKDQEAFMQSAKFLKEGKILAIKGIGGFHLMCDAFNEEALKTLRLRKNRPKKPFALMCKDLQSAKELAFIDEKEEALLGGVLAPIVILKAKKAFSLIAPDVDKIGIMLAYTPLHLLLFEYFKGSLVATSANLSGESIIKDEFNLCKKLDKVFDFYLDYDREIINASDDSIAQVVNGETMFLRTSR | not soluble |
| MASVHGTTYELLRRQGIDTVFGNPGSNELPFLKDFPEDFRYILALQEACVVGIADGYAQASRKPAFINLHSAAGTGNAMGALSNAWNSHSPLIVTAGQQTRAMIGVEALLTNVDAANLPRPLVKWSYEPASAAEVPHAMSRAIHMASMAPQGPVYLSVPYDDWDKDADPQSHHLFDRHVSSSVRLNDQDLDILVKALNSASNPAIVLGPDVDAANANADCVMLAERLKAPVWVAPSAPRCPFPTRHPCFRGLMPAGIAAISQLLEGHDVVLVIGAPVFRYHQYDPGQYLKPGTRLISVTCDPLEAARAPMGDAIVADIGAMASALANLVEESSRQLPTAAPEPAKVDQDAGRLHPETVFDTLNDMAPENAIYLNESTSTTAQMWQRLNMRNPGSYYFCAAGGLGFALPAAIGVQLAEPERQVIAVIGDGSANYSISALWTAAQYNIPTIFVIMNNGTYGALRWFAGVLEAENVPGLDVPGIDFRALAKGYGVQALKADNLEQLKGSLQEALSAKGPVLIEVSTVSPVKHHHHHH | soluble |
| MGAFFMSVVSAFAGAAEACRPTGALQNVEVARVVDGDTVRLRDGRSVRLIGINAPELAHNGRTTEPFAEAAKQRLQALVSASDGRLALQPGRQARDHYGRTLAHLFDASGANLEARLLGEGLGYLVAVAPNTELTACQQAAERAARSANLGVWKRSPVLSLDRLAQSGFAVVRGRVLEVERNRGGIWLEMDGPLVLRIEPKVLKAFDAKRVMQMAGRSLEVRGWVVDRSRRGAVPAGKARWQMSVTDPAMLEWLPLEHHHHHH | not soluble |
